{"source": "patent EP4086284A1", "about": "(Emergence Therapeutics AG, dated 2022)", "binders": {"B1": {"name": "Enfortumab (HA22) (antibody, V domains shown)", "VH": "EVQLVESGGGLVQPGGSLRLSCAASGFTFSSYNMNWVRQAPGKGLEWVSYISSSSSTIYYADSVKGRFTISRDNAKNSLSLQMNSLRDEDTAVYYCARAYYYGMDVWGQGTTVTVSS", "VL": "DIQMTQSPSSVSASVGDRVTITCRASQGISGWLAWYQQKPGKAPKFLIYAASTLQSGVPSRFSGSGSGTDFTLTISSLQPEDFATYYCQQANSFPPTFGGGTKVEIK", "notes": "also called HA22 mAb"}}, "target": "T1, Nectin-4 extracellular domain Fc fusion recombinant protein (Nec4-VCC) (human, UniProt Q96NY8 32-349)", "T1 construct": "extracellular domain; also called Nectin-4-VCC-Fc; not shown: Fc part", "T1 sequence (looked up)": "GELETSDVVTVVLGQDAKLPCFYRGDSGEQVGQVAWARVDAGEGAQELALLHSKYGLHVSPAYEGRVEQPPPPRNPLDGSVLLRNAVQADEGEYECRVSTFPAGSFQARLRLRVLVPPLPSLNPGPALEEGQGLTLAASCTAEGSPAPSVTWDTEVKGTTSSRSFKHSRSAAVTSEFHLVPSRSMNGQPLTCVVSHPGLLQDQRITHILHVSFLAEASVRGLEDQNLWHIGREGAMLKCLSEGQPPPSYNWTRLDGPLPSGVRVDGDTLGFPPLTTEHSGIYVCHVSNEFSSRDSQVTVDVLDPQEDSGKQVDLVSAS", "experiment": "statement in the legend of the competition ELISA on Nec4-VCC", "data": [{"binder": "B1", "values": [{"measurement": "binding result", "result": "binds"}]}]}
